This is an account of results in patent US20250002588A1 (DIAGONAL THERAPEUTICS, published 2025).

This assay concerns the target ALK-1/BMPR-2 receptor pair of the PathHunter U2Os dimerization cells (DiscoverX 93-0962C3) (UniProt P37023 22-503; Q13873 27-1038). The assay can be described thus: cell-based or functional assay.

Sequence of ALK-1/BMPR-2 receptor pair of the PathHunter U2Os dimerization cells (DiscoverX 93-0962C3) (P37023 22-503, one chain of several): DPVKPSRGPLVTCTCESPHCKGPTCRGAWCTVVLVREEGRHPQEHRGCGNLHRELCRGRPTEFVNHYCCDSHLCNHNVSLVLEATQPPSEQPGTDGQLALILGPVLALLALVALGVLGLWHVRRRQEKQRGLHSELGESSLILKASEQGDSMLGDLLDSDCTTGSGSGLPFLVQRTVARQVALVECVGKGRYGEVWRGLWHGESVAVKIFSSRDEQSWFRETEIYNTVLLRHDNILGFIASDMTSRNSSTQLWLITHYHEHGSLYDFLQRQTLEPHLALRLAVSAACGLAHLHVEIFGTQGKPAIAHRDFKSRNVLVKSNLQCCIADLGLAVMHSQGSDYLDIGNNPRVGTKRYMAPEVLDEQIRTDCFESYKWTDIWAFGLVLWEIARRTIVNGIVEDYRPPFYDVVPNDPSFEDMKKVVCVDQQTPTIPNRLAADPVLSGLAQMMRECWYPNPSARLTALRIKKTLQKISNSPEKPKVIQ

B1: DGL912 (bispecific antibody)
chain 1: not shown
chain 2: EVQLLESGGGLVQPGGSLRLSCAASGFTFSDYYMNWIRQAPGKGLEWVSSISGGSTYYADSVKGRFTISRDNSENTLYLQMNSLRAEDTAVYYCARDFGVAGWFGQFGMDVWGQGTLVTVSSGGGGSGGGGSGGGGSQSVLTQPPSASGTPGQRVTISCTGSSSNIGAGYDVHWYQQLPGTAPKLLIYRSNQRPSGVPDRFSGSKSGTSASLAISGLRSEDEADYYCSSYAGNYNLVFGGGTKLTVLDKTHTCPPCPAPEAAGAPSVFLFPPKPKDTLMISRTPEVTCVVVDVSHEDPEVKFNWYVDGVEVHNAKTKPREEQYNSTYRVVSVLTVLHQDWLNGKEYKCKVSNKALPAPIEKTISKAKGQPREPQVCTLPPSRDELTKNQVSLSCAVKGFYPSDIAVEWESNGQPENNYKTTPPVLDSDGSFFLVSKLTVDKSRWQQGNVFSCSVMHEALHNHYTQKSLSLSPGWSHPQFEK
In the case of B1, the “% Emax BMP9” value is 33% and the “Emax (RLU)” value was 910000 RLU.

B2: DGL916 (bispecific antibody)
chain 1: not shown
chain 2: EVQLLESGGGLVQPGGSLRLSCAASGFTFSDYWMTWIRQAPGKGLEWVSSISGGSTYYADSRKGRFTISRDNSENTLYLQMNSLRAEDTAVYYCARDFGVAGWFGQYGMDVWGQGTLVTVSSGGGGSGGGGSGGGGSQSVLTQPPSASGTPGQRVTISCTGSSSNIGAGYDVHWYQQLPGTAPKLLIYRSNQRPSGVPDRFSGSKSGTSASLAISGLRSEDEADYYCSSYAGNYNLVFGGGTKLTVLDKTHTCPPCPAPEAAGAPSVFLFPPKPKDTLMISRTPEVTCVVVDVSHEDPEVKFNWYVDGVEVHNAKTKPREEQYNSTYRVVSVLTVLHQDWLNGKEYKCKVSNKALPAPIEKTISKAKGQPREPQVCTLPPSRDELTKNQVSLSCAVKGFYPSDIAVEWESNGQPENNYKTTPPVLDSDGSFFLVSKLTVDKSRWQQGNVFSCSVMHEALHNHYTQKSLSLSPGWSHPQFEK
Regarding B2, the “% Emax BMP9” value was 41% and the “Emax (RLU)” value turned out to be 1.11e+06 RLU.

B3: DGL917 (bispecific antibody)
chain 1: not shown
chain 2: EVQLLESGGGLVQPGGSLRLSCAASGFTFSDYYMTWIRQAPGKGLEWVSSISGGTTYYADSRKGRFTISRDNSENTLYLQMNSLRAEDTAVYYCARDFGVAGWFGQYGMDVWGQGTLVTVSSGGGGSGGGGSGGGGSQSVLTQPPSASGTPGQRVTISCTGSSSNIGAGYDVHWYQQLPGTAPKLLIYRSNQRPSGVPDRFSGSKSGTSASLAISGLRSEDEADYYCSSYAGNYNLVFGGGTKLTVLDKTHTCPPCPAPEAAGAPSVFLFPPKPKDTLMISRTPEVTCVVVDVSHEDPEVKFNWYVDGVEVHNAKTKPREEQYNSTYRVVSVLTVLHQDWLNGKEYKCKVSNKALPAPIEKTISKAKGQPREPQVCTLPPSRDELTKNQVSLSCAVKGFYPSDIAVEWESNGQPENNYKTTPPVLDSDGSFFLVSKLTVDKSRWQQGNVFSCSVMHEALHNHYTQKSLSLSPGWSHPQFEK
Regarding B3, the “% Emax BMP9” value came to 17% and the “Emax (RLU)” value is 469000 RLU.

B4: DGL915 (bispecific antibody)
chain 1: not shown
chain 2: EVQLLESGGGLVQPGGSLRLSCAASGFTFSDYYMTWIRQAPGKGLEWVSSISGGSTYYADSRKGRFTISRDNSENTLYLQMNSLRAEDTAVYYCARDFGVSGWFGQYGMDVWGQGTLVTVSSGGGGSGGGGSGGGGSQSVLTQPPSASGTPGQRVTISCTGSSSNIGAGYDVHWYQQLPGTAPKLLIYRSNQRPSGVPDRFSGSKSGTSASLAISGLRSEDEADYYCSSYAGNYNLVFGGGTKLTVLDKTHTCPPCPAPEAAGAPSVFLFPPKPKDTLMISRTPEVTCVVVDVSHEDPEVKFNWYVDGVEVHNAKTKPREEQYNSTYRVVSVLTVLHQDWLNGKEYKCKVSNKALPAPIEKTISKAKGQPREPQVCTLPPSRDELTKNQVSLSCAVKGFYPSDIAVEWESNGQPENNYKTTPPVLDSDGSFFLVSKLTVDKSRWQQGNVFSCSVMHEALHNHYTQKSLSLSPGWSHPQFEK
Regarding B4, the “% Emax BMP9” value came out at 5% and the “Emax (RLU)” value turned out to be 124000 RLU.

B5: DGL914 (bispecific antibody)
chain 1: not shown
chain 2: EVQLLESGGGLVQPGGSLRLSCAASGFTFSDYYMNWIRQAPGKGLEWVSSISGGSTYYADSVKGRFTISRDNSENTLYLQMNSLRAEDTAVYYCARDFGVAGWFGYYGMDVWGQGTLVTVSSGGGGSGGGGSGGGGSQSVLTQPPSASGTPGQRVTISCTGSSSNIGAGYDVHWYQQLPGTAPKLLIYRSNQRPSGVPDRFSGSKSGTSASLAISGLRSEDEADYYCSSYAGNYNLVFGGGTKLTVLDKTHTCPPCPAPEAAGAPSVFLFPPKPKDTLMISRTPEVTCVVVDVSHEDPEVKFNWYVDGVEVHNAKTKPREEQYNSTYRVVSVLTVLHQDWLNGKEYKCKVSNKALPAPIEKTISKAKGQPREPQVCTLPPSRDELTKNQVSLSCAVKGFYPSDIAVEWESNGQPENNYKTTPPVLDSDGSFFLVSKLTVDKSRWQQGNVFSCSVMHEALHNHYTQKSLSLSPGWSHPQFEK
B5: the “% Emax BMP9” value was found to be 20% and the “Emax (RLU)” value was 557000 RLU.

B6: DGL913 (bispecific antibody)
chain 1: not shown
chain 2: EVQLLESGGGLVQPGGSLRLSCAASGFTFSDSYMSWIRQAPGKGLEWVSSISGGSTYYADSVKGRFTISRDNSENTLYLQMNSLRAEDTAVYYCARDFGVAGYFGQYGMDVWGQGTLVTVSSGGGGSGGGGSGGGGSQSVLTQPPSASGTPGQRVTISCTGSSSNIGAGYDVHWYQQLPGTAPKLLIYRSNQRPSGVPDRFSGSKSGTSASLAISGLRSEDEADYYCSSYAGNYNLVFGGGTKLTVLDKTHTCPPCPAPEAAGAPSVFLFPPKPKDTLMISRTPEVTCVVVDVSHEDPEVKFNWYVDGVEVHNAKTKPREEQYNSTYRVVSVLTVLHQDWLNGKEYKCKVSNKALPAPIEKTISKAKGQPREPQVCTLPPSRDELTKNQVSLSCAVKGFYPSDIAVEWESNGQPENNYKTTPPVLDSDGSFFLVSKLTVDKSRWQQGNVFSCSVMHEALHNHYTQKSLSLSPGWSHPQFEK
With B6, the “% Emax BMP9” value worked out at 0% and the “Emax (RLU)” value is 8420 RLU.

B7: DGL918 (bispecific antibody)
chain 1: not shown
chain 2: EVQLLESGGGLVQPGGSLRLSCAASGFTFSDYWMTWIRQAPGKGLEWVSSISGGTTYYADSRKGRFTISRDNSENTLYLQMNSLRAEDTAVYYCARDFGVSGWFGQYGMDVWGQGTLVTVSSGGGGSGGGGSGGGGSQSVLTQPPSASGTPGQRVTISCTGSSSNIGAGYDVHWYQQLPGTAPKLLIYRSNQRPSGVPDRFSGSKSGTSASLAISGLRSEDEADYYCSSYAGNYNLVFGGGTKLTVLDKTHTCPPCPAPEAAGAPSVFLFPPKPKDTLMISRTPEVTCVVVDVSHEDPEVKFNWYVDGVEVHNAKTKPREEQYNSTYRVVSVLTVLHQDWLNGKEYKCKVSNKALPAPIEKTISKAKGQPREPQVCTLPPSRDELTKNQVSLSCAVKGFYPSDIAVEWESNGQPENNYKTTPPVLDSDGSFFLVSKLTVDKSRWQQGNVFSCSVMHEALHNHYTQKSLSLSPGWSHPQFEK
B7: the “% Emax BMP9” value worked out at 46% and the “Emax (RLU)” value worked out at 1.24e+06 RLU.
